Patent US20260069679A1

Key:
[1] = target: SS\u0394G4Loop-L6-Aferr (MERS-CoV EMC/2012 spike stem fused to human apoferritin); test: BLI, 1:1 fit
[2] = target: SS\u0394G4Loop-L6-LuS (MERS-CoV EMC/2012 spike stem fused to Aquifex aeolicus lumazine synthase); test: BLI, 1:1 fit
[3] = target: SS-L6-LuS; test: BLI, 1:1 fit
[4] = target: SS-L2-LuS (MERS-CoV EMC/2012 spike stem fused to Aquifex aeolicus lumazine synthase); test: BLI, 1:1 fit
[5] = target: SS-L6-Aferr; test: BLI, 1:1 fit
[6] = target: MERS SS Nanoparticle (NP)
[7] = target: SS-L2-LuS (MERS-CoV EMC/2012 spike stem fused to Aquifex aeolicus lumazine synthase)
[8] = target: MERS SS delG4loop Nanoparticle; test: BLI sensorgrams, six curves without concentration labels, time axis 0-500 s

Row | Substance | Kd [1] [pM] | kon [1] [M⁻¹ s⁻¹] | Kd [2] [pM] | kon [2] [M⁻¹ s⁻¹] | Kd [3] [pM] | kon [3] [M⁻¹ s⁻¹] | Kd [4] [pM] | kon [4] [M⁻¹ s⁻¹] | Kd [5] [pM] | kon [5] [M⁻¹ s⁻¹] | Kd [6] [pM] | maximum binding [7] [nm] | Kd [8] [pM]
1 | CC40.8 (antibody) | 2730 | 184000 | 2280 | 218000 | 1850 | 219000 | 748 | 315000 | 1970 | 268000 |  |  | 
2 | G4 (antibody) | 2.82 | 229000 | 3.47 | 147000 | 4.6 | 133000 | 1.78 | 270000 | 3.02 | 155000 | 1.7 | 1.3 | 3
